Laboratory results as given in patent US20220041738A1 (SAITAMA MEDICAL UNIVERSITY, published 2022).

Key:
Assay in all cases: immunofluorescence on transfected, formalin-fixed C2C12 cells, IgG at 10 µg/mL, Alexa 594 anti-rat IgG
[1] = molecular target: T1, human ALK2-G328E on cells (human, UniProt Q04771 21-509)
T1 sequence: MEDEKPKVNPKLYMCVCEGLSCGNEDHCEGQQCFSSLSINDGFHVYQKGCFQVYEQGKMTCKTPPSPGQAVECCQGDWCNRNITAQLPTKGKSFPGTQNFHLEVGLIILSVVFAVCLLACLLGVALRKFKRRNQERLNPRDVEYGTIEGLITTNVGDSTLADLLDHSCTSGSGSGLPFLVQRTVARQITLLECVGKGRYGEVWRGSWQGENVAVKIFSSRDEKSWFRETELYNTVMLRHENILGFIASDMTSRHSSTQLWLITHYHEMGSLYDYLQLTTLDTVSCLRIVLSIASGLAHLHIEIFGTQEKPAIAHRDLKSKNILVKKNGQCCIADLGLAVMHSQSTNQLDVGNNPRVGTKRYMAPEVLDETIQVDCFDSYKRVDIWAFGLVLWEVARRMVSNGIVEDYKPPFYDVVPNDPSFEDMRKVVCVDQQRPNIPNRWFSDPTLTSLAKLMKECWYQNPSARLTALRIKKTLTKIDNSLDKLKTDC
Method: (§1) Mouse C2C12 cells were seeded into a 96-well plate (Greiner Bio-One) at 0.5×10³ cells/well, and cultured in 15% FBS-containing DMEM medium overnight under the conditions of 5% CO₂ at 37° C. On the following day, the C2C12 cells were transfected with each of a wild-type human ALK2 cDNA integrated into pcDEF3; pcDEF3/human ALK2-L196P, pcDEF3/human ALK2-P197_F198delinsL, pcDEF3/human ALK2-R202I, pcDEF3/human ALK2-R206H, pcDEF3/human ALK2-Q207E, pcDEF3/human ALK2-R258S, pcDEF3/human ALK2-G325A, pcDEF3/human ALK2-G328E, pcDEF3/human ALK2-G328R, pcDEF3/human ALK2-G328W, pcDEF3/human ALK2-G356D, and pcDEF3/human ALK2-R375P, which are variants identified in FOP; and pcDEF3 as a control, using Lipofectamine 2000 (Invitrogen), and further cultured overnight.
(§2) The C2C12 cells were fixed with 10% neutral formalin (Nacalai Tesque, Japan) for 20 minutes at room temperature, and then blocked with 10% goat normal serum for 30 minutes. After the blocking agent was removed, purified IgG diluted to 10 μg/mL with the blocking agent was added, and the cells were left for 1 hour at room temperature. After the cells were washed with PBS three times, Goat Alexa 594-conjugated anti-rat IgG (Invitrogen) diluted to 1:1000 with the blocking agent was added, and the cells were left for 1 hour at room temperature. After the cells were washed with PBS three times, the cells were fixed with 10% neutral formalin for 15 minutes at room temperature, and nuclear-stained with DAPI (LifeTechnologies). Fluorescent signals were analyzed with a fluorescence microscope BZ-9000 (Keyence).

[2] = molecular target: T2, human ALK2-R258S on cells (human, UniProt Q04771 21-509)
T2 sequence: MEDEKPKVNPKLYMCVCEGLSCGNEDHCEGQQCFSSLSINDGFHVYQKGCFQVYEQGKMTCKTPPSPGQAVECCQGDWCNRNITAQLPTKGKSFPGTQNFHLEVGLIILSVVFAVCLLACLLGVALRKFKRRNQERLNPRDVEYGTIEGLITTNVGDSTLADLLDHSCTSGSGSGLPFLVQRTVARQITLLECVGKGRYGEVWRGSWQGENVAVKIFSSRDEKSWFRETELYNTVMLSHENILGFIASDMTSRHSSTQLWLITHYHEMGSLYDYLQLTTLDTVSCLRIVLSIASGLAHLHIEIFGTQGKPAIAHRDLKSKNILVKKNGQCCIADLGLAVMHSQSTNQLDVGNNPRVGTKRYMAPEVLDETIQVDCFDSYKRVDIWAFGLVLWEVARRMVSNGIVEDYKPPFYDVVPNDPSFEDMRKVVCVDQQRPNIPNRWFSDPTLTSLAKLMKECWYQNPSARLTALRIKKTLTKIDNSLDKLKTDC
Method: as §1, §2

[3] = molecular target: T3, human ALK2-G356D on cells (human, UniProt Q04771 21-509)
T3 sequence: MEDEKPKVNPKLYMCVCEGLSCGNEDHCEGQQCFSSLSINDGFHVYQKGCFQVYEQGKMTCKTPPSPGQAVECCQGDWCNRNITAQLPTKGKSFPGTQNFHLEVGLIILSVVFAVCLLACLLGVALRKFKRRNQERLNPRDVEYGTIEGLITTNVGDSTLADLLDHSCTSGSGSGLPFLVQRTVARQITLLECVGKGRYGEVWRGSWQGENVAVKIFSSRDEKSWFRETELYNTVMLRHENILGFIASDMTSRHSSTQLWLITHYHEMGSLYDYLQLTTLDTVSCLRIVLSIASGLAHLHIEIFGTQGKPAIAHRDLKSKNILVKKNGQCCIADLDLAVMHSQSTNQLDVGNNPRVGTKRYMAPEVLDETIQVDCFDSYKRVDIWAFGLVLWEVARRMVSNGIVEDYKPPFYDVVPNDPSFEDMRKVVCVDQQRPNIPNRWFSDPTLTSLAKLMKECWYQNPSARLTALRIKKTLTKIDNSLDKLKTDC
Method: as §1, §2

[4] = molecular target: T4, human ALK2-L196P on cells (human, UniProt Q04771 21-509)
T4 sequence: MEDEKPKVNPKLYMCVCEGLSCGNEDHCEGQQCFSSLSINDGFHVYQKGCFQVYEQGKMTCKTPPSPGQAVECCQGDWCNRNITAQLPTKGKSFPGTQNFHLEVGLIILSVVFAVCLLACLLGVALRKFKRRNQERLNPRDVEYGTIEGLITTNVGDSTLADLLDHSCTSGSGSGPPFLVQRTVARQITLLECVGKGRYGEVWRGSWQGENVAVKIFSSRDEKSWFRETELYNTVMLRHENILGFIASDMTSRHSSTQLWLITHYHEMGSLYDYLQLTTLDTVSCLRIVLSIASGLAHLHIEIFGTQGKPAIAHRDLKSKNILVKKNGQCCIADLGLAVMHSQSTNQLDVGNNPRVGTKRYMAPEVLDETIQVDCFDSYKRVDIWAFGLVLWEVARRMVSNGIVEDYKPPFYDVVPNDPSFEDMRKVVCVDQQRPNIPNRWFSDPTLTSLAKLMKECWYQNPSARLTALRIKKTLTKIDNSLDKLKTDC
Method: as §1, §2

Measured: binding result

B1: rat anti-ALK2 monoclonal antibody A2-27D (antibody, V domains shown)
VH: EVQLVESGGGLVQPGRSLKLSCLASGSTFSNYGMKWIRQAPGKGLEWVASISRSSTYIYYADTVKGRFTISRDNARNTLYLQMTSLRSEDTALYYCAAAISTPFYWYFDFWGPGTVVTVSS
VL: EIVLTQSPTTMAASPGEKVTLNCLASSSVSYMTWYQQKSGASPKLWIYGTSNLASGVPNRFSGSGSGTSYSLAISSMEAEDVATYYCLHLTSYPPYTFGAGTKLELKR
notes: Rat monoclonal IgG from a hybridoma; also called 27D11
binds: all assays above

B2: rat anti-ALK2 monoclonal antibody A2-25C (antibody, V domains shown)
VH: EVQLVESGGGLVQPGGSLKLSCAASGFTFSYYAMSWVCQAPTKGLEWVASISRGGDNTYYRDTVKGRFTTSRDNAKNTLYLQMDSLRSEDTATYYCARLNYNNYFDYWGQGVMVTVSS
VL: DIQMTQSPASLSASLEEIVTITCQASQDIGNWLSWYQQKPGKSPQLLIYGATSLADGVPSRFSGSRSGTQYSLKISRLRVEDIGIYYCLQAYSAPFTFGSGTKLEIKR
notes: Rat monoclonal IgG from a hybridoma; also called 25C11
binds: all assays above
